Our source for the Kd values is PMC4200520.

As usually defined, the Kd is the constant that tells how readily two partners part at equilibrium. A high value points to lower affinity.

In this experiment the target is XMAP-Ct, C-terminal coiled-coil fragment of XMAP215 (Xenopus) (UniProt Q9PT63). In words: SPR. Conditions: domain or fragment.
Sequence of XMAP-Ct, C-terminal coiled-coil fragment of XMAP215 (Xenopus) (Q9PT63 2002-2065): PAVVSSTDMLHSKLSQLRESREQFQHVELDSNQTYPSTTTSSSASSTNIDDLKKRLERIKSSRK

Sequence of TD5, TACC domain fragment of XTACC3 with a deletion of helix α1 (Q9PTG8 whole entry, stated change not applied, the tested form may be a part): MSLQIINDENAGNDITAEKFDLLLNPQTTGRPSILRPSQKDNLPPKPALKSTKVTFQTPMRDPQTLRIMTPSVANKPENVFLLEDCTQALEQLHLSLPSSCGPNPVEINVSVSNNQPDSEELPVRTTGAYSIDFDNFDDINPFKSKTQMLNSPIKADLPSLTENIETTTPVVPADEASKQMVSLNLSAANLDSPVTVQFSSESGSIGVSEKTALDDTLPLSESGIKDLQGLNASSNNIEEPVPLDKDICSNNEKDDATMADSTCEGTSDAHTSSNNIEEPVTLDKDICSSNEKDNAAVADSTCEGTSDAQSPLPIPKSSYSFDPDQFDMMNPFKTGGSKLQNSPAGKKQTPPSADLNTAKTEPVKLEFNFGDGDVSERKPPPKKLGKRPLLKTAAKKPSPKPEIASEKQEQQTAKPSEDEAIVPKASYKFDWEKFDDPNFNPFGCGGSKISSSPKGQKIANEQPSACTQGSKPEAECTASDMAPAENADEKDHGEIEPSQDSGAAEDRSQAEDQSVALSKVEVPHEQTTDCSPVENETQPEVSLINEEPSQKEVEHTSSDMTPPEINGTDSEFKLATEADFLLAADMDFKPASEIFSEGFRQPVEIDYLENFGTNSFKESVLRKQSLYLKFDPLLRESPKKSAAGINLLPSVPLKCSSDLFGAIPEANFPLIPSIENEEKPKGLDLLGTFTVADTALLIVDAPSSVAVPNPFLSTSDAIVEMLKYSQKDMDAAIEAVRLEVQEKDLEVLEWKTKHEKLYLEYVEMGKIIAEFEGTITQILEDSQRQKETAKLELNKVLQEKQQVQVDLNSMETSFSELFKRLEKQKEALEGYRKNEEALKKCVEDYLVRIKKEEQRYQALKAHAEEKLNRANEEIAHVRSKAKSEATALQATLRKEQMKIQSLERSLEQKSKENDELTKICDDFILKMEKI

Substance “TD5, TACC domain fragment of XTACC3 with a deletion of helix α1” came in with a Kd of 4.3 µM.
